According to patent US20130336893A1 (Sanofi, published 2013):
*1 amine or outer side, *2 acyl side, *3 side chain or, on linkers, in order; H or OH if unused. Where no end group is shown, it is not given here. Side-chain parts run from the residue outwards. [ ]: non-standard residue; d: D form. The star is where a group is joined. γGlu = O=C(O)[C@H](CCC(=O)[*:2])N[*:1]; Palmitoyl = CCCCCCCCCCCCCCCC(=O)*; Propionyl = CCC(=O)*; βAla = NCCC(=O)O

Key:
human GLP-1 receptor = human GLP-1 receptor (human, UniProt P43220 24-463); assay: cell-based or functional assay
human glucagon receptor = human glucagon receptor (human, UniProt P47871 26-477); assay: cell-based or functional assay
Sequence of human glucagon receptor (P47871 26-477): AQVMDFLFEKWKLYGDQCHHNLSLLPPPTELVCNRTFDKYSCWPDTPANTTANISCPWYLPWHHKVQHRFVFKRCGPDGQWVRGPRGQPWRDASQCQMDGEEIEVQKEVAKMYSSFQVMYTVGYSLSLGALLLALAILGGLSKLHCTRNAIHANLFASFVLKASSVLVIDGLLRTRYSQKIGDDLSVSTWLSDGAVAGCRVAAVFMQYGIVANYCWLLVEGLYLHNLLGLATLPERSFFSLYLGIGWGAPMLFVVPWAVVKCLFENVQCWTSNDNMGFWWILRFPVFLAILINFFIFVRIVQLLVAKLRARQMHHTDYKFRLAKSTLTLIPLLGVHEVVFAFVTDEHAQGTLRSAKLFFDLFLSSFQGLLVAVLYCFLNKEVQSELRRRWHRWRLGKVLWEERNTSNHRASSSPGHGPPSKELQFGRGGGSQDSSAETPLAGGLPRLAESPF

| Binder | EC50 hGLP-1R (cAMP formation) (human GLP-1 receptor) | EC50 hGlucagonR (cAMP formation) (human glucagon receptor) |
| --- | --- | --- |
| H[dS]QGTFTSDLSKQMESRRAQDFIEWLKSGGPSSGAPPPSK(6‑((4,4-diphenyl-cyclohexyloxy)-hydroxy-phosphoryloxy)‑hexanoyl)-NH2 [SEQ ID NO: (107)] | 0.009 nM | 5.16 nM |
| H[dS]QGTFTSDLSKQMEEEAAQDFIEWLKAGGPSSGAPPPSK([γGlu-Palmitoyl])-NH2 (N-terminus assumed; SMILES CCCCCCCCCCCCCCCC(=O)N[C@@H](CCC(=O)NCCCC[C@H](NC(=O)[C@H](CO)NC(=O)[C@@H]1CCCN1C(=O)[C@@H]1CCCN1C(=O)[C@@H]1CCCN1C(=O)[C@H](C)NC(=O)CNC(=O)[C@H](CO)NC(=O)[C@H](CO)NC(=O)[C@@H]1CCCN1C(=O)CNC(=O)CNC(=O)[C@H](C)NC(=O)[C@H](CCCCN)NC(=O)[C@H](CC(C)C)NC(=O)[C@H](Cc1c[nH]c2ccccc12)NC(=O)[C@H](CCC(=O)O)NC(=O)[C@@H](NC(=O)[C@H](Cc1ccccc1)NC(=O)[C@H](CC(=O)O)NC(=O)[C@H](CCC(N)=O)NC(=O)[C@H](C)NC(=O)[C@H](C)NC(=O)[C@H](CCC(=O)O)NC(=O)[C@H](CCC(=O)O)NC(=O)[C@H](CCC(=O)O)NC(=O)[C@H](CCSC)NC(=O)[C@H](CCC(N)=O)NC(=O)[C@H](CCCCN)NC(=O)[C@H](CO)NC(=O)[C@H](CC(C)C)NC(=O)[C@H](CC(=O)O)NC(=O)[C@H](CO)NC(=O)[C@@H](NC(=O)[C@H](Cc1ccccc1)NC(=O)[C@@H](NC(=O)CNC(=O)[C@H](CCC(N)=O)NC(=O)[C@@H](CO)NC(=O)[C@@H](N)Cc1c[nH]cn1)[C@@H](C)O)[C@@H](C)O)[C@@H](C)CC)C(N)=O)C(=O)O) [SEQ ID NO: (108)] | 0.0021 nM | 0.541 nM |
| HSQGTFTSDLSKQMEERRAKDFIEWLKNGGPSSGAPPPS-NH2 [SEQ ID NO: (16)] | 0.0076 nM | 2.13 nM |
| H[dS]QGTFTSDLSKQMESRRAQDFIEWLKEGGPSSGKPPPSK([γGlu-Palmitoyl])-NH2 (N-terminus assumed; SMILES CCCCCCCCCCCCCCCC(=O)N[C@@H](CCC(=O)NCCCC[C@H](NC(=O)[C@H](CO)NC(=O)[C@@H]1CCCN1C(=O)[C@@H]1CCCN1C(=O)[C@@H]1CCCN1C(=O)[C@H](CCCCN)NC(=O)CNC(=O)[C@H](CO)NC(=O)[C@H](CO)NC(=O)[C@@H]1CCCN1C(=O)CNC(=O)CNC(=O)[C@H](CCC(=O)O)NC(=O)[C@H](CCCCN)NC(=O)[C@H](CC(C)C)NC(=O)[C@H](Cc1c[nH]c2ccccc12)NC(=O)[C@H](CCC(=O)O)NC(=O)[C@@H](NC(=O)[C@H](Cc1ccccc1)NC(=O)[C@H](CC(=O)O)NC(=O)[C@H](CCC(N)=O)NC(=O)[C@H](C)NC(=O)[C@H](CCCNC(=N)N)NC(=O)[C@H](CCCNC(=N)N)NC(=O)[C@H](CO)NC(=O)[C@H](CCC(=O)O)NC(=O)[C@H](CCSC)NC(=O)[C@H](CCC(N)=O)NC(=O)[C@H](CCCCN)NC(=O)[C@H](CO)NC(=O)[C@H](CC(C)C)NC(=O)[C@H](CC(=O)O)NC(=O)[C@H](CO)NC(=O)[C@@H](NC(=O)[C@H](Cc1ccccc1)NC(=O)[C@@H](NC(=O)CNC(=O)[C@H](CCC(N)=O)NC(=O)[C@@H](CO)NC(=O)[C@@H](N)Cc1c[nH]cn1)[C@@H](C)O)[C@@H](C)O)[C@@H](C)CC)C(N)=O)C(=O)O) [SEQ ID NO: (104)] | 0.0073 nM | 0.0287 nM |
| H[dS]QGTFTSDLSKQMESEAAQDFIEWLKAGGPSSGAPPPSK([γGlu-Palmitoyl])-NH2 (N-terminus assumed; SMILES CCCCCCCCCCCCCCCC(=O)N[C@@H](CCC(=O)NCCCC[C@H](NC(=O)[C@H](CO)NC(=O)[C@@H]1CCCN1C(=O)[C@@H]1CCCN1C(=O)[C@@H]1CCCN1C(=O)[C@H](C)NC(=O)CNC(=O)[C@H](CO)NC(=O)[C@H](CO)NC(=O)[C@@H]1CCCN1C(=O)CNC(=O)CNC(=O)[C@H](C)NC(=O)[C@H](CCCCN)NC(=O)[C@H](CC(C)C)NC(=O)[C@H](Cc1c[nH]c2ccccc12)NC(=O)[C@H](CCC(=O)O)NC(=O)[C@@H](NC(=O)[C@H](Cc1ccccc1)NC(=O)[C@H](CC(=O)O)NC(=O)[C@H](CCC(N)=O)NC(=O)[C@H](C)NC(=O)[C@H](C)NC(=O)[C@H](CCC(=O)O)NC(=O)[C@H](CO)NC(=O)[C@H](CCC(=O)O)NC(=O)[C@H](CCSC)NC(=O)[C@H](CCC(N)=O)NC(=O)[C@H](CCCCN)NC(=O)[C@H](CO)NC(=O)[C@H](CC(C)C)NC(=O)[C@H](CC(=O)O)NC(=O)[C@H](CO)NC(=O)[C@@H](NC(=O)[C@H](Cc1ccccc1)NC(=O)[C@@H](NC(=O)CNC(=O)[C@H](CCC(N)=O)NC(=O)[C@@H](CO)NC(=O)[C@@H](N)Cc1c[nH]cn1)[C@@H](C)O)[C@@H](C)O)[C@@H](C)CC)C(N)=O)C(=O)O) [SEQ ID NO: (109)] | 0.0033 nM | 0.277 nM |
| H[dS]QGTFTSDLSKQMESRAAQDFIEWLKSGGPSSGAPPPSK([γGlu-Palmitoyl])-NH2 (N-terminus assumed; SMILES CCCCCCCCCCCCCCCC(=O)N[C@@H](CCC(=O)NCCCC[C@H](NC(=O)[C@H](CO)NC(=O)[C@@H]1CCCN1C(=O)[C@@H]1CCCN1C(=O)[C@@H]1CCCN1C(=O)[C@H](C)NC(=O)CNC(=O)[C@H](CO)NC(=O)[C@H](CO)NC(=O)[C@@H]1CCCN1C(=O)CNC(=O)CNC(=O)[C@H](CO)NC(=O)[C@H](CCCCN)NC(=O)[C@H](CC(C)C)NC(=O)[C@H](Cc1c[nH]c2ccccc12)NC(=O)[C@H](CCC(=O)O)NC(=O)[C@@H](NC(=O)[C@H](Cc1ccccc1)NC(=O)[C@H](CC(=O)O)NC(=O)[C@H](CCC(N)=O)NC(=O)[C@H](C)NC(=O)[C@H](C)NC(=O)[C@H](CCCNC(=N)N)NC(=O)[C@H](CO)NC(=O)[C@H](CCC(=O)O)NC(=O)[C@H](CCSC)NC(=O)[C@H](CCC(N)=O)NC(=O)[C@H](CCCCN)NC(=O)[C@H](CO)NC(=O)[C@H](CC(C)C)NC(=O)[C@H](CC(=O)O)NC(=O)[C@H](CO)NC(=O)[C@@H](NC(=O)[C@H](Cc1ccccc1)NC(=O)[C@@H](NC(=O)CNC(=O)[C@H](CCC(N)=O)NC(=O)[C@@H](CO)NC(=O)[C@@H](N)Cc1c[nH]cn1)[C@@H](C)O)[C@@H](C)O)[C@@H](C)CC)C(N)=O)C(=O)O) [SEQ ID NO: (103)] | 0.0037 nM | 0.0459 nM |
| H[dS]QGTFTSDLSKQMESRRAQDFIEWLKSGGPSSGAPPPSK([βAla-βAla-Palmitoyl])-NH2 (N-terminus assumed; SMILES CCCCCCCCCCCCCCCC(=O)NCCC(=O)NCCC(=O)NCCCC[C@H](NC(=O)[C@H](CO)NC(=O)[C@@H]1CCCN1C(=O)[C@@H]1CCCN1C(=O)[C@@H]1CCCN1C(=O)[C@H](C)NC(=O)CNC(=O)[C@H](CO)NC(=O)[C@H](CO)NC(=O)[C@@H]1CCCN1C(=O)CNC(=O)CNC(=O)[C@H](CO)NC(=O)[C@H](CCCCN)NC(=O)[C@H](CC(C)C)NC(=O)[C@H](Cc1c[nH]c2ccccc12)NC(=O)[C@H](CCC(=O)O)NC(=O)[C@@H](NC(=O)[C@H](Cc1ccccc1)NC(=O)[C@H](CC(=O)O)NC(=O)[C@H](CCC(N)=O)NC(=O)[C@H](C)NC(=O)[C@H](CCCNC(=N)N)NC(=O)[C@H](CCCNC(=N)N)NC(=O)[C@H](CO)NC(=O)[C@H](CCC(=O)O)NC(=O)[C@H](CCSC)NC(=O)[C@H](CCC(N)=O)NC(=O)[C@H](CCCCN)NC(=O)[C@H](CO)NC(=O)[C@H](CC(C)C)NC(=O)[C@H](CC(=O)O)NC(=O)[C@H](CO)NC(=O)[C@@H](NC(=O)[C@H](Cc1ccccc1)NC(=O)[C@@H](NC(=O)CNC(=O)[C@H](CCC(N)=O)NC(=O)[C@@H](CO)NC(=O)[C@@H](N)Cc1c[nH]cn1)[C@@H](C)O)[C@@H](C)O)[C@@H](C)CC)C(N)=O) [SEQ ID NO: (98)] | 0.0051 nM | 0.0146 nM |
| H[dS]QGTFTSDLSKQMESRRAQDFIEWLKSGGPSSGAPPPSK([γGlu-Propionyl])-NH2 [SEQ ID NO: (106)] | 0.315 nM | 1.32 nM |
| H[dS]QGTFTSDLSKQMESRRAQDFIEWLKSGGPSSGAPPPK([βAla-βAla-Palmitoyl])-NH2 (N-terminus assumed; SMILES CCCCCCCCCCCCCCCC(=O)NCCC(=O)NCCC(=O)NCCCC[C@H](NC(=O)[C@@H]1CCCN1C(=O)[C@@H]1CCCN1C(=O)[C@@H]1CCCN1C(=O)[C@H](C)NC(=O)CNC(=O)[C@H](CO)NC(=O)[C@H](CO)NC(=O)[C@@H]1CCCN1C(=O)CNC(=O)CNC(=O)[C@H](CO)NC(=O)[C@H](CCCCN)NC(=O)[C@H](CC(C)C)NC(=O)[C@H](Cc1c[nH]c2ccccc12)NC(=O)[C@H](CCC(=O)O)NC(=O)[C@@H](NC(=O)[C@H](Cc1ccccc1)NC(=O)[C@H](CC(=O)O)NC(=O)[C@H](CCC(N)=O)NC(=O)[C@H](C)NC(=O)[C@H](CCCNC(=N)N)NC(=O)[C@H](CCCNC(=N)N)NC(=O)[C@H](CO)NC(=O)[C@H](CCC(=O)O)NC(=O)[C@H](CCSC)NC(=O)[C@H](CCC(N)=O)NC(=O)[C@H](CCCCN)NC(=O)[C@H](CO)NC(=O)[C@H](CC(C)C)NC(=O)[C@H](CC(=O)O)NC(=O)[C@H](CO)NC(=O)[C@@H](NC(=O)[C@H](Cc1ccccc1)NC(=O)[C@@H](NC(=O)CNC(=O)[C@H](CCC(N)=O)NC(=O)[C@@H](CO)NC(=O)[C@@H](N)Cc1c[nH]cn1)[C@@H](C)O)[C@@H](C)O)[C@@H](C)CC)C(N)=O) [SEQ ID NO: (100)] | 0.0096 nM | 0.0166 nM |
| H[dS]QGTFTSDLSKQMESRRAQDFIEWLKSGGPSSGAPPPSK(Ac)-NH2 [SEQ ID NO: (105)] | 0.142 nM | 0.614 nM |
